According to patent publication US10941182 (Amgen, dated 2021):
Starred links: 1 amine or outer side, 2 acyl side, 3 side chain; linkers in the order of their positions; H or OH if unused. Non-standard residues stand in square brackets, D forms with d. *: point of attachment. AC4Abu = α-carboxy-4-aminobutyric acid, O=C(C(CCN[*:1])C(=O)[*:3])[*:2]; dBip = N[C@H](Cc1ccc(-c2ccccc2)cc1)C(=O)O; Oic = O=C(O)[C@@H]1C[C@@H]2CCCC[C@@H]2N1; Phe(4-Cl) = N[C@@H](Cc1ccc(Cl)cc1)C(=O)O; Phe(4-I) = N[C@@H](Cc1ccc(I)cc1)C(=O)O; γGlu = O=C(O)[C@H](CCC(=O)[*:2])N[*:1]; NMeR = CN[C@@H](CCCNC(=N)N)C(=O)O; Tridecanoyl = CCCCCCCCCCCCC(=O)*; hArg = N=C(N)NCCCC[C@H](N)C(=O)O; Cha = N[C@@H](CC1CCCCC1)C(=O)O; NMeL = CN[C@@H](CC(C)C)C(=O)O; αMeL = CC(C)C[C@](C)(N)C(=O)O; αMeP = C[C@@]1(C(=O)O)CCCN1; Nle = CCCC[C@H](N)C(=O)O; Deg = CCC(N)(CC)C(=O)O; AEEA = NCCOCCOCC(=O)O; BLeu = β-leucine

Tests used:
human APJ receptor = molecular target: T1, human APJ receptor (human, UniProt P35414 1-380); assay: cell-based or functional assay
T1 sequence (looked up): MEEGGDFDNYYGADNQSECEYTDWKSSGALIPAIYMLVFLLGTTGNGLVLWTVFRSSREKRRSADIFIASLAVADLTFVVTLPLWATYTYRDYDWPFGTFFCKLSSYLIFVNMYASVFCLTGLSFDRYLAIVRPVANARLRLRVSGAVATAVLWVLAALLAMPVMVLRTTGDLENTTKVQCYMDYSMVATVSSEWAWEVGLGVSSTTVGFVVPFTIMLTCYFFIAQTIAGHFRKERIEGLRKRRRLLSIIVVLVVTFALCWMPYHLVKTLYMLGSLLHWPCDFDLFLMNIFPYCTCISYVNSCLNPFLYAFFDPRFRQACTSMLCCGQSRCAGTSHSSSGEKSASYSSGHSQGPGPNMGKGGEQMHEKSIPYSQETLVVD

rat APJ receptor = molecular target: T2, rat APJ receptor (rat, UniProt Q9JHG3 1-377); assay: cell-based or functional assay
T2 sequence (looked up): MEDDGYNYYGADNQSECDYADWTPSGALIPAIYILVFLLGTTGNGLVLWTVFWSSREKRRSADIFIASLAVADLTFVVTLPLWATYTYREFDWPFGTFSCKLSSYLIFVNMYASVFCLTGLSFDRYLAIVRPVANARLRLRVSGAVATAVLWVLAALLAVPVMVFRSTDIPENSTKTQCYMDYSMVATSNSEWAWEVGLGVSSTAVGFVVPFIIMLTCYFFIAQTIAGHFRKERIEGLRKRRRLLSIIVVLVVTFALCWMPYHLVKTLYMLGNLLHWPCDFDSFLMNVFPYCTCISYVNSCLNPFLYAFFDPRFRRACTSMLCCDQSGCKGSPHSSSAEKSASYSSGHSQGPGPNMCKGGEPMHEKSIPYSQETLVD

EC50 Human APJ Receptor (human APJ receptor) | EC50 Rat APJ Receptor (rat APJ receptor) | Binder
0.741 nM | 1.02 nM | Tridecanoyl-[γGlu][AEEA][AEEA][BLeu]RP[hArg][BLeu]SHKG[Oic][Nle]P[Phe(4-Cl)]-OH [SEQ ID NO: 395]
0.769 nM | 2.67 nM | Tridecanoyl-[γGlu][AEEA][AEEA][BLeu]RP[NMeR][Cha]SHKG[Oic][Nle]P[Phe(4-Cl)]-OH [SEQ ID NO: 393]
0.297 nM | 1.5 nM | Tridecanoyl-[γGlu][AEEA][AEEA][BLeu]RP[NMeR][BLeu]SHKG[Oic][Nle]P[Phe(4-Cl)]-OH [SEQ ID NO: 394]
2.31 nM | 1.67 nM | Tridecanoyl-[γGlu][AEEA][AEEA][Deg]RP[NMeR][Cha]SHKG[Oic][Nle]P[Phe(4-Cl)]-OH (SMILES CCCCCCCCCCCCC(=O)N[C@@H](CCC(=O)NCCOCCOCC(=O)NCCOCCOCC(=O)NC(CC)(CC)C(=O)N[C@@H](CCCNC(=N)N)C(=O)N1CCC[C@H]1C(=O)N(C)[C@@H](CCCNC(=N)N)C(=O)N[C@@H](CC1CCCCC1)C(=O)N[C@@H](CO)C(=O)N[C@@H](Cc1c[nH]cn1)C(=O)N[C@@H](CCCCN)C(=O)NCC(=O)N1[C@H](C(=O)N[C@@H](CCCC)C(=O)N2CCC[C@H]2C(=O)N[C@@H](Cc2ccc(Cl)cc2)C(=O)O)C[C@@H]2CCCC[C@@H]21)C(=O)O) [SEQ ID NO: 443]
3.4 nM | 12.5 nM | Tridecanoyl-[AC4Abu][AEEA][AEEA][Deg][hArg]P[dR][Cha]SHKG[Oic][Nle]P[Phe(4-Cl)]-OH (SMILES CCCCCCCCCCCCC(=O)NCCC(C(=O)O)C(=O)NCCOCCOCC(=O)NCCOCCOCC(=O)NC(CC)(CC)C(=O)N[C@@H](CCCCNC(=N)N)C(=O)N1CCC[C@H]1C(=O)N[C@H](CCCNC(=N)N)C(=O)N[C@@H](CC1CCCCC1)C(=O)N[C@@H](CO)C(=O)N[C@@H](Cc1c[nH]cn1)C(=O)N[C@@H](CCCCN)C(=O)NCC(=O)N1[C@H](C(=O)N[C@@H](CCCC)C(=O)N2CCC[C@H]2C(=O)N[C@@H](Cc2ccc(Cl)cc2)C(=O)O)C[C@@H]2CCCC[C@@H]21) [SEQ ID NO: 558]

More lines, now with the values behind:

Binder | EC50 Human APJ Receptor (human APJ receptor) | EC50 Rat APJ Receptor (rat APJ receptor)
Tridecanoyl-[γGlu][AEEA][AEEA][hArg][Nle]Q[hArg]P[dR][NMeL]AHKG[Oic][Phe(4-I)]P[dBip]-OH (SMILES CCCCCCCCCCCCC(=O)N[C@@H](CCC(=O)NCCOCCOCC(=O)NCCOCCOCC(=O)N[C@@H](CCCCNC(=N)N)C(=O)N[C@@H](CCCC)C(=O)N[C@@H](CCC(N)=O)C(=O)N[C@@H](CCCCNC(=N)N)C(=O)N1CCC[C@H]1C(=O)N[C@H](CCCNC(=N)N)C(=O)N(C)[C@@H](CC(C)C)C(=O)N[C@@H](C)C(=O)N[C@@H](Cc1c[nH]cn1)C(=O)N[C@@H](CCCCN)C(=O)NCC(=O)N1[C@H](C(=O)N[C@@H](Cc2ccc(I)cc2)C(=O)N2CCC[C@H]2C(=O)N[C@H](Cc2ccc(-c3ccccc3)cc2)C(=O)O)C[C@@H]2CCCC[C@@H]21)C(=O)O) [SEQ ID NO: 321] | 17.9 nM | 29.1 nM
Tridecanoyl-[γGlu][AEEA][AEEA][BLeu]RP[NMeR][αMeL]SHKG[Oic][Nle]P[Phe(4-Cl)]-OH [SEQ ID NO: 374] | 0.305 nM | 0.503 nM
Tridecanoyl-[γGlu][AEEA][AEEA][hArg][Nle]Q[hArg]P[dR][NMeL]SHKG[Oic][Phe(4-I)]P[dBip]-OH (SMILES CCCCCCCCCCCCC(=O)N[C@@H](CCC(=O)NCCOCCOCC(=O)NCCOCCOCC(=O)N[C@@H](CCCCNC(=N)N)C(=O)N[C@@H](CCCC)C(=O)N[C@@H](CCC(N)=O)C(=O)N[C@@H](CCCCNC(=N)N)C(=O)N1CCC[C@H]1C(=O)N[C@H](CCCNC(=N)N)C(=O)N(C)[C@@H](CC(C)C)C(=O)N[C@@H](CO)C(=O)N[C@@H](Cc1c[nH]cn1)C(=O)N[C@@H](CCCCN)C(=O)NCC(=O)N1[C@H](C(=O)N[C@@H](Cc2ccc(I)cc2)C(=O)N2CCC[C@H]2C(=O)N[C@H](Cc2ccc(-c3ccccc3)cc2)C(=O)O)C[C@@H]2CCCC[C@@H]21)C(=O)O) [SEQ ID NO: 315] | 3.04 nM | 4.9 nM
Tridecanoyl-[γGlu][AEEA][AEEA][hArg][Nle]Q[hArg]P[dR][NMeL]AAKG[Oic][Phe(4-I)]P[dBip]-OH (SMILES CCCCCCCCCCCCC(=O)N[C@@H](CCC(=O)NCCOCCOCC(=O)NCCOCCOCC(=O)N[C@@H](CCCCNC(=N)N)C(=O)N[C@@H](CCCC)C(=O)N[C@@H](CCC(N)=O)C(=O)N[C@@H](CCCCNC(=N)N)C(=O)N1CCC[C@H]1C(=O)N[C@H](CCCNC(=N)N)C(=O)N(C)[C@@H](CC(C)C)C(=O)N[C@@H](C)C(=O)N[C@@H](C)C(=O)N[C@@H](CCCCN)C(=O)NCC(=O)N1[C@H](C(=O)N[C@@H](Cc2ccc(I)cc2)C(=O)N2CCC[C@H]2C(=O)N[C@H](Cc2ccc(-c3ccccc3)cc2)C(=O)O)C[C@@H]2CCCC[C@@H]21)C(=O)O) [SEQ ID NO: 333] | 36.1 nM | 46.6 nM
Tridecanoyl-[γGlu][AEEA][AEEA][hArg][Nle]Q[hArg]P[dR][NMeL]SAKG[Oic][Phe(4-I)]P[dBip]-OH (SMILES CCCCCCCCCCCCC(=O)N[C@@H](CCC(=O)NCCOCCOCC(=O)NCCOCCOCC(=O)N[C@@H](CCCCNC(=N)N)C(=O)N[C@@H](CCCC)C(=O)N[C@@H](CCC(N)=O)C(=O)N[C@@H](CCCCNC(=N)N)C(=O)N1CCC[C@H]1C(=O)N[C@H](CCCNC(=N)N)C(=O)N(C)[C@@H](CC(C)C)C(=O)N[C@@H](CO)C(=O)N[C@@H](C)C(=O)N[C@@H](CCCCN)C(=O)NCC(=O)N1[C@H](C(=O)N[C@@H](Cc2ccc(I)cc2)C(=O)N2CCC[C@H]2C(=O)N[C@H](Cc2ccc(-c3ccccc3)cc2)C(=O)O)C[C@@H]2CCCC[C@@H]21)C(=O)O) [SEQ ID NO: 327] | 14.4 nM | 14.8 nM
Tridecanoyl-[γGlu][AEEA][AEEA][BLeu]RP[NMeR][αMeL]SHKG[Oic][Nle][αMeP][Phe(4-Cl)]-OH [SEQ ID NO: 388] | 0.706 nM | 0.727 nM
